# Source: patent US20240270821A1, “GIP/GLP1/GCG TRI-RECEPTOR AGONISTS AND USES THEREOF” (priority 2023, published 2024)
# T1: human GIP receptor (human) (UniProt P48546)
# T1 sequence (looked up): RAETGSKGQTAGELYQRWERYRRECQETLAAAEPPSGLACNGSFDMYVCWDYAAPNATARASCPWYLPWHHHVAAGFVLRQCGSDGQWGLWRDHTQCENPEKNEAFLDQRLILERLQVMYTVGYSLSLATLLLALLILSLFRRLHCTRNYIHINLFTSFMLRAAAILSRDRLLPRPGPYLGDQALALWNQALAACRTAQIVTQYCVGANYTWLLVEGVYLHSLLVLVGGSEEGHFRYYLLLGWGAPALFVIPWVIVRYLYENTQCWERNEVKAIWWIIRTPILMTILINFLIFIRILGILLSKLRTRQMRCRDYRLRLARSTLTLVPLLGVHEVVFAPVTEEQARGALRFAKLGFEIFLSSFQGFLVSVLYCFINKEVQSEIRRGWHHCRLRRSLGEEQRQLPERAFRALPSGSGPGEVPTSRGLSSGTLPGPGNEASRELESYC
# B1: Example 183 (peptide)
# chain: YXQGTFTSDFSXXLDKKAQXAFIEYLLEXGXSSGAPPPSGS
# modifications: synthetic construct; SITE 2: note = 2-Aminoisobutyric Acid; SITE 12: note = L-ornithine; SITE 13: note = alpha-methyl-leucine; SITE 17: note = Lysine is chemically modified through conjugation of the epsilon-amino group of the Lysine side chain with (2-[2-(2-Amino-ethoxy)-ethoxy]-acetyl)2-(gamma-Glu)
# B2: Example 211 (peptide)
# chain: YXQGTFTSDFSXXLDKKAQXAFIEYLLEAGPSSGAPPPSGX
# modifications: synthetic construct; SITE 2: note = 2-Aminoisobutyric Acid; SITE 12: note = L-ornithine; SITE 13: note = alpha-methyl-leucine; SITE 17: note = Lysine is chemically modified through conjugation of the epsilon-amino group of the Lysine side chain with (2-[2-(2-Amino-ethoxy)-ethoxy]-acetyl)-(gamma-Glu)
# B3: Example 217 (peptide)
# chain: YXQGTFTSDFSKXLDKKAQXAFIEYLIEXGESSGAPPPSGE
# modifications: synthetic construct; SITE 2: note = 2-Aminoisobutyric Acid; SITE 13: note = alpha-methyl-leucine; SITE 17: note = Lysine is chemically modified through conjugation of the epsilon-amino group of the Lysine side chain with (2-[2-(2-Amino-ethoxy)-ethoxy]-acetyl)-(gamma-Glu)-CO-(CH2) 16-CO2H; SITE 20: n
# B4: Example 225 (peptide)
# chain: YXQGTFTSDXSRXLDKKAQXAFIEYLIEXGESSGAPPPSGE
# modifications: synthetic construct; SITE 2: note = 2-Aminoisobutyric Acid; SITE 10: note = 3-(4-Pyridyl)-L-alanine; SITE 13: note = alpha-methyl-leucine; SITE 17: note = Lysine is chemically modified through conjugation of the epsilon-amino group of the Lysine side chain with (2-[2-(2-Amino-ethoxy)-ethoxy]-acetyl)
# B5: Example 214 (peptide)
# chain: YXQGTFTSDFSXXLDKKAQXAFIEYLLEAGPSSXAPPPSGT
# modifications: synthetic construct; SITE 2: note = 2-Aminoisobutyric Acid; SITE 12: note = L-ornithine; SITE 13: note = alpha-methyl-leucine; SITE 17: note = Lysine is chemically modified through conjugation of the epsilon-amino group of the Lysine side chain with (2-[2-(2-Amino-ethoxy)-ethoxy]-acetyl)-(gamma-Glu)
# B6: Example 205 (peptide)
# chain: YXQGTFTSDFSXXLDKKAQXAFIEYLLEAGPSSGAPPPSGT
# modifications: not fully specified; synthetic construct; SITE 2: note = 2-Aminoisobutyric Acid; SITE 12: note = L-ornithine; SITE 13: note = alpha-methyl-leucine; SITE 17: note = Lysine is chemically modified through conjugation of the epsilon-amino group of the Lysine side chain with (gamma-Glu)3-CO-(CH2)16-CO2H; SITE 20: note = 2-Am
# B7: Example 232 (peptide)
# chain: YXQGTFTSDFSQXLDKKAQXAFIEYLIEXGESSGAPPPSGS
# modifications: synthetic construct; SITE 2: note = 2-Aminoisobutyric Acid; SITE 13: note = alpha-methyl-leucine; SITE 17: note = Lysine is chemically modified through conjugation of the epsilon-amino group of the Lysine side chain with (2-[2-(2-Amino-ethoxy)-ethoxy]-acetyl)-(gamma-Glu)-CO-(CH2) 16-CO2H; SITE 20: n
# B8: Example 223 (peptide)
# chain: YXQGTFTSDXSXXLDKKAQXAFIEYLIEXGESSGAPPPSGS
# modifications: synthetic construct; SITE 2: note = 2-Aminoisobutyric Acid; SITE 10: note = 3-(4-Pyridyl)-L-alanine; SITE 12: note = L-ornithine; SITE 13: note = alpha-methyl-leucine; SITE 17: note = Lysine is chemically modified through conjugation of the epsilon-amino group of the Lysine side chain with (2-[2-(2-
# B9: Example 227 (peptide)
# chain: YXQGTFTSDXSQXLDKKAQXAFIEYLIEXGESSGAPPPSGE
# modifications: synthetic construct; SITE 2: note = 2-Aminoisobutyric Acid; SITE 10: note = 3-(4-Pyridyl)-L-alanine; SITE 13: note = alpha-methyl-leucine; SITE 17: note = Lysine is chemically modified through conjugation of the epsilon-amino group of the Lysine side chain with (2-[2-(2-Amino-ethoxy)-ethoxy]-acetyl)
# B10: Example 200 (peptide)
# chain: YXQGTFTSDFSXXLDKKAQXAFIEYLLEXGPSSGAPPPSGT
# modifications: synthetic construct; SITE 2: note = 2-Aminoisobutyric Acid; SITE 12: note = L-ornithine; SITE 13: note = alpha-methyl-leucine; SITE 17: note = Lysine is chemically modified through conjugation of the epsilon-amino group of the Lysine side chain with (2-[2-(2-Amino-ethoxy)-ethoxy]-acetyl)-(gamma-Glu)
# B11: Example 189 (peptide)
# chain: YXQGTFTSDFSXXLDKKAQXAFIEYLLEXGXSSGAPPPSGE
# modifications: synthetic construct; SITE 2: note = 2-Aminoisobutyric Acid; SITE 12: note = L-ornithine; SITE 13: note = alpha-methyl-leucine; SITE 17: note = Lysine is chemically modified through conjugation of the epsilon-amino group of the Lysine side chain with (2-[2-(2-Amino-ethoxy)-ethoxy]-acetyl)2-(gamma-Glu)
# Legend:
# Experiment in all cases: cell-based or functional assay
# [1] = target: human GLP-1R (SNAP-GLP-1R expressed in HEK293 cells) (human) (UniProt P43220)
# [2] = target: T1, human GIP receptor (human)
# [3] = target: hGLP-1R (Homo sapiens, UniProt P43220)
# [4] = target: human glucagon receptor (human) (UniProt P47871)
# human glucagon receptor (human), sequence (P47871 26-477): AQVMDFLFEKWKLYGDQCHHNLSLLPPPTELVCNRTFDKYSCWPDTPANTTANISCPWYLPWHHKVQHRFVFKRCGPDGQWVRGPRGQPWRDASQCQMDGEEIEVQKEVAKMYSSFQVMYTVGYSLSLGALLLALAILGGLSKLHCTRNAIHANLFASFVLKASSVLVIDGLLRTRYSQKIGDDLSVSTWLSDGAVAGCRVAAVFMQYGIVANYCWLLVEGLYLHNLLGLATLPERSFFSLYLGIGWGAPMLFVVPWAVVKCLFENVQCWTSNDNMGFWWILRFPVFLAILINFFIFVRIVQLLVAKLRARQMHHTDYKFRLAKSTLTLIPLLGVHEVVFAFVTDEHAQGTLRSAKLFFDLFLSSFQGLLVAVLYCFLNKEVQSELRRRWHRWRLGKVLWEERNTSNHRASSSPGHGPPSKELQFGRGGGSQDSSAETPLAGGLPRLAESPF
# human GLP-1R (SNAP-GLP-1R expressed in HEK293 cells) (human), sequence (P43220 24-463): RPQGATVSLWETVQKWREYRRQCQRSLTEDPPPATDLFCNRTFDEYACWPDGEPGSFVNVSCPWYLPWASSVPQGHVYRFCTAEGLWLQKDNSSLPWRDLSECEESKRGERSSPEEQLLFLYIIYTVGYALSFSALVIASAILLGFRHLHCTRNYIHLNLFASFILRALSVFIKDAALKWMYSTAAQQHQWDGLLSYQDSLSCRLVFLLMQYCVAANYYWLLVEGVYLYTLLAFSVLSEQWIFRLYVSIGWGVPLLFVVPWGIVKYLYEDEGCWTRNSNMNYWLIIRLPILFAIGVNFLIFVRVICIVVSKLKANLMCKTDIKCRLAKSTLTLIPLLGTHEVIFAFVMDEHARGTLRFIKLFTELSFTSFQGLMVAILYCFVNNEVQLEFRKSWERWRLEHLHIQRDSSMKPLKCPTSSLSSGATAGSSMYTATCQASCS
# hGLP-1R, sequence (P43220 24-463): as above
Binder,GLP1R Internalization EC50 [1],Internalization % TOP [1],"Relative cAMP EC50, nM (0.1% casein) [2]","cAMP Rel EC50, nM (1% HSA) [2]","Relative cAMP EC50, nM (0.1% casein) [3]","cAMP Rel EC50, nM (1% HSA) [3]","Relative cAMP EC50, nM (0.1% casein) [4]","cAMP Rel EC50, nM (1% HSA) [4]",Relative cAMP EC50 [2],Relative cAMP EC50 [3],Relative cAMP EC50 [4]
B1,100 nM,45.4%,0.0759 nM,13.7 nM,5.03 nM,295 nM,3.83 nM,504 nM,,,
B2,57.4 nM,26.9%,,20.6 nM,,234 nM,,370 nM,0.116 nM,1.23 nM,2.05 nM
B3,27.6 nM,58.2%,,15 nM,,130 nM,,1570 nM,0.0897 nM,0.667 nM,5.11 nM
B4,26 nM,56.7%,,40.2 nM,,438 nM,,561 nM,0.213 nM,2.44 nM,2.36 nM
B5,50.1 nM,41.7%,,15.1 nM,,186 nM,,302 nM,0.103 nM,1.22 nM,2.49 nM
B6,49.4 nM,67.7%,,24.4 nM,,234 nM,,397 nM,0.16 nM,2.71 nM,8.98 nM
B7,44.7 nM,45.5%,,24.6 nM,,226 nM,,482 nM,0.102 nM,0.819 nM,2.42 nM
B8,45.8 nM,59.3%,,37.2 nM,,627 nM,,373 nM,0.215 nM,2.83 nM,1.57 nM
B9,114 nM,59.4%,,39.7 nM,,418 nM,,937 nM,0.17 nM,2.34 nM,4.22 nM
B10,86.1 nM,39.2%,,13.7 nM,,395 nM,,360 nM,0.0739 nM,3.19 nM,2.83 nM
B11,103 nM,45.8%,0.0695 nM,22.2 nM,4.46 nM,423 nM,6.28 nM,853 nM,,,
